Experiment [1] addresses T1, human CD37 (human, UniProt P11049 1-278).
T1 sequence: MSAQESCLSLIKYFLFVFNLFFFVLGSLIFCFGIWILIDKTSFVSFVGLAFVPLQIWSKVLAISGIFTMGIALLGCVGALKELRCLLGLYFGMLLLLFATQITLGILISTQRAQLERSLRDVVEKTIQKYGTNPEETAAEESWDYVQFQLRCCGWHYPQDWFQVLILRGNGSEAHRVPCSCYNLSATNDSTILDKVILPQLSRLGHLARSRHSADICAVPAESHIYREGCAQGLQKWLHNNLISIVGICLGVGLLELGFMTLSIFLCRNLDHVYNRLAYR
Kind of experiment: cell-based or functional assay.

The target of experiment [2] is T1, human CD37. Kind of experiment: flow cytometry titration; apparent Kd; cells not named. Background: In flow cytometry, cells or beads pass a laser one at a time.
Experiment [3] has as its target T1, human CD37. Put plainly: flow cytometry titration on BJAB cells; apparent Kd. As for the experimental part:
(§1) Binding specificity was tested by flow cytometry using purified antibodies. […] All murine antibodies were incubated for 3 h with either CD37-expressing 300-19 cells or the non-transfected 300-19 cells (1×10⁵ cells per sample) in 100 μL FACS buffer (RPMI-1640 medium supplemented with 2% normal goat serum). Then, the cells were pelleted, washed, and incubated for 1 h with 100 μL of FITC-conjugated goat anti-mouse IgG-antibody (Jackson Laboratory, 6 μg/mL in FACS buffer). The cells were pelleted again, washed with FACS buffer and resuspended in 200 μL of PBS containing 1% formaldehyde. Samples were acquired using a FACSCalibur flow cytometer with the HTS multiwell sampler or a FACS array flow cytometer and analyzed using CellQuest Pro (all from BD Biosciences, San Diego, US).
The humanized antibodies huCD37-38, huCD37-50, huCD37-51, huCD37-56 and chCD37-57 were assayed for their binding affinity to BJAB cells in comparison to their murine counterparts. Flow cytometry binding assays were carried out using secondary FITC-conjugated goat-anti-murine and -anti-human antibodies, analyzed as described in Example 2 and dose-response curves were generated by non-linear regression for each antibody. The value for the apparent dissociation constant (Kd) of each antibody was calculated using GraphPad Prism v4 (GraphPad software, San Diego, Calif.).

Another experiment has as its target T2, macaque CD37 (macaque, UniProt P11049 1-277 (human entry)).
T2 construct: Expressed on 300-19 cells transfected with pSRa-CD37mac (300-19/CD37mac cells); also called macaca CD37; macaque derived CD37 antigen
T2 chain: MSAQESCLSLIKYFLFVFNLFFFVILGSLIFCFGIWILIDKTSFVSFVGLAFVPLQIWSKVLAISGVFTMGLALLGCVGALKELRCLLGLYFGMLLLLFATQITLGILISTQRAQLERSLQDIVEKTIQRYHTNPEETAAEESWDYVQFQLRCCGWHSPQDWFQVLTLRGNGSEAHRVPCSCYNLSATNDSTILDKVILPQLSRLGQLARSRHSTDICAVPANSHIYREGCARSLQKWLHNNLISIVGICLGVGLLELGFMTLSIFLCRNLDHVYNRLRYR
Kind of experiment: flow cytometry titration on 300-19/CD37mac cells; apparent Kd. Here is the method:
as §1
Flow cytometry binding assays were carried out using secondary FITC-conjugated goat-anti-human antibodies, analyzed as described in Example 2 and dose-response curves were generated by non-linear regression for each antibody. The value for the apparent dissociation constant (Kd) of each antibody was calculated using GraphPad Prism v4 (GraphPad software, San Diego, Calif.).

Where “and” joins values, the source holds several entries; their conditions need not be identical. Identical values can stand only once.

From US20110256153A1 (IMMUNOGEN, published 2011) come the findings set out here.

B1: huCD37-3-PEG4-mal-DM1 (antibody, human IgG1, kappa, V domains shown)
VH: QVQVQESGPGLVAPSQTLSITCTVSGFSLTTSGVSWVRQPPGKGLEWLGVIWGDGSTNYHPSLKSRLSIKKDHSKSQVFLKLNSLTAADTATYYCAKGGYSLAHWGQGTLVTVSS
VL: DIQMTQSPSSLSVSVGERVTITCRASENIRSNLAWYQQKPGKSPKLLVNVATNLADGVPSRFSGSGSGTDYSLKINSLQPEDFGTYYCQHYWGTTWTFGQGTKLEIKR
modifications: DM1 attached through PEG4-mal linker; attachment residues not stated; 3.5-4 maytansinoid molecules per antibody
notes: heavy chain version as for huCD37-3, see its note
In the case of B1, in the experiment with human CD37 [1], the “EC50 of in vitro cytotoxicity, BJAB cells” value came out at 0.01 nM; the “EC50 of in vitro cytotoxicity, Daudi cells” value came to 0.018 nM; the “EC50 of in vitro cytotoxicity, Granta-519 cells” value came out at 0.012 nM; the “EC50 of in vitro cytotoxicity, Namalwa cells” value stood at 0.024 nM. Moreover, in the experiment with human CD37 [1], the “EC50 of in vitro cytotoxicity, Raji cells” value amounted to 0.045 nM; the “EC50 of in vitro cytotoxicity, Raji-VCR cells” value was 0.037 nM; the “EC50 of in vitro cytotoxicity, Ramos cells” value came to 0.069 nM; the “EC50 of in vitro cytotoxicity, SU-DHL-4 cells” value came out at 0.024 nM. Besides, in the experiment with human CD37 [2], the Kd worked out at 0.35 nM.

B2: huCD37-50-SMCC-DM1 (antibody, human IgG1, kappa, V domains shown)
VH: QVQLQESGPGLLKPSQSLSLTCTVSGYSITSGFAWHWIRQHPGNKLEWMGYILYSGSTVYSPSLKSRISITRDTSKNHFFLQLNSVTAADTATYYCARGYYGYGAWFAYWGQGTLVTVSA
VL: EIVLTQSPATMSASPGERVTMTCSATSSVTYMHWYQQKPGQSPKRWIYDTSNLPYGVPARFSGSGSGTSYSLTISSMEAEDAATYYCQQWSDNPPTFGQGTKLEIKR
modifications: DM1 attached through SMCC linker; attachment residues and load not stated
notes: SMCC-DM1 conjugate of huCD37-50
B2: in the experiment with human CD37 [1], the “EC50 of in vitro cytotoxicity, WST-8 assay, Daudi cells” value (“EC50 … WST-8 assay, Daudi cells” below) stood at 0.13 nM and the “EC50 of in vitro cytotoxicity, WST-8 assay, Granta-519 cells” value turned out to be 0.12 nM. Besides, the Kd with human CD37 [2] came to 0.7 nM.

B3: huCD37-51 (antibody, human IgG1, kappa, V domains shown)
VH: EVQLVESGPEVLKPGESLSLTCTVSGYSISSGFAWHWIRQFPGKGLEWMGYIHYSGSTNYSPSLQGRISITRDSSINQFFLQLNSVTASDTATYYCARGYYGFGAWFVYWGQGTLVTVSA
VL: EIVLTQSPATMSASPGERVTMTCSATSSVTYMHWYQQKPGQSPKRWIYDTSKLASGVPARFSGSGSGTSYSLTISSMEAEDAATYYCQQWSSNPPTFGQGTKLEIKR
notes: Humanized antibody
B3: the Kd with human CD37 [3] turned out to be 0.8 nM; with macaque CD37, 14 nM; with human CD37 [2] it was 2 nM.

B4: huCD37-51-SMCC-DM1 (antibody, human IgG1, kappa, V domains shown)
VH: EVQLVESGPEVLKPGESLSLTCTVSGYSISSGFAWHWIRQFPGKGLEWMGYIHYSGSTNYSPSLQGRISITRDSSINQFFLQLNSVTASDTATYYCARGYYGFGAWFVYWGQGTLVTVSA
VL: EIVLTQSPATMSASPGERVTMTCSATSSVTYMHWYQQKPGQSPKRWIYDTSKLASGVPARFSGSGSGTSYSLTISSMEAEDAATYYCQQWSSNPPTFGQGTKLEIKR
modifications: DM1 attached through SMCC linker; attachment residues and load not stated
notes: SMCC-DM1 conjugate of huCD37-51
As to B4, in the experiment with human CD37 [1], the “EC50 … WST-8 assay, Daudi cells” value worked out at 0.2 nM and the “EC50 of in vitro cytotoxicity, WST-8 assay, Granta-519 cells” value turned out to be 0.25 nM. Further, the Kd in the experiment with human CD37 [2] came to 1.6 nM.

B5: huCD37-50-PEG4-mal-DM1 (antibody, human IgG1, kappa, V domains shown)
VH: QVQLQESGPGLLKPSQSLSLTCTVSGYSITSGFAWHWIRQHPGNKLEWMGYILYSGSTVYSPSLKSRISITRDTSKNHFFLQLNSVTAADTATYYCARGYYGYGAWFAYWGQGTLVTVSA
VL: EIVLTQSPATMSASPGERVTMTCSATSSVTYMHWYQQKPGQSPKRWIYDTSNLPYGVPARFSGSGSGTSYSLTISSMEAEDAATYYCQQWSDNPPTFGQGTKLEIKR
modifications: DM1 attached through PEG4-mal linker; attachment residues and load not stated
notes: PEG4-mal-DM1 conjugate of huCD37-50
For the molecule B5, the Kd with human CD37 [2] is 1.1 nM.

B6: huCD37-50 (antibody, human IgG1, kappa, V domains shown)
VH: QVQLQESGPGLLKPSQSLSLTCTVSGYSITSGFAWHWIRQHPGNKLEWMGYILYSGSTVYSPSLKSRISITRDTSKNHFFLQLNSVTAADTATYYCARGYYGYGAWFAYWGQGTLVTVSA
VL: EIVLTQSPATMSASPGERVTMTCSATSSVTYMHWYQQKPGQSPKRWIYDTSNLPYGVPARFSGSGSGTSYSLTISSMEAEDAATYYCQQWSDNPPTFGQGTKLEIKR
notes: Resurfaced (humanized) antibody
In the case of B6, the Kd with human CD37 [3] is 0.2 nM; in the experiment with macaque CD37, 1.8 nM; with human CD37 [2] it was 0.43 nM and 0.68 nM.

B7: huCD37-57 (antibody, human IgG1, kappa, V domains shown)
VH: QVQLQESGPGLLKPSQSLSLTCTVSGYSITSGFAWHWIRQFPGKGLEWMGYILYSGSTVYSPSLKSRISITRDTSKNQFFLQLNSVTAADTATYYCARGYYGYGAWFAYWGQGTLVTVSA
VL: EIVLTQSPATMSASPGERVTMTCSATSSVTYMHWYQQKPGQSPRRWIYDTSNLASGVPARFSGSGSGTSYSLTISSMEAEDAATYYCQQWSDNPPTFGQGTKLEIKR
notes: Humanized antibody
In the case of B7, the Kd in the experiment with macaque CD37 is 2 nM; in the experiment with human CD37 [2], 0.3 nM.

B8: huCD37-57-SMCC-DM1 (antibody, human IgG1, kappa, V domains shown)
VH: QVQLQESGPGLLKPSQSLSLTCTVSGYSITSGFAWHWIRQFPGKGLEWMGYILYSGSTVYSPSLKSRISITRDTSKNQFFLQLNSVTAADTATYYCARGYYGYGAWFAYWGQGTLVTVSA
VL: EIVLTQSPATMSASPGERVTMTCSATSSVTYMHWYQQKPGQSPRRWIYDTSNLASGVPARFSGSGSGTSYSLTISSMEAEDAATYYCQQWSDNPPTFGQGTKLEIKR
modifications: DM1 attached through SMCC linker; attachment residues and load not stated
notes: SMCC-DM1 conjugate of huCD37-57
With B8, the “EC50 … WST-8 assay, Daudi cells” value in the experiment with human CD37 [1] worked out at 0.35 nM. For the same molecule, in the experiment with human CD37 [2], the Kd is 0.34 nM.

B9: huCD37-56-SMCC-DM1 (antibody, human IgG1, kappa, V domains shown)
VH: QVQLQESGPGLVKPSQSLSLTCTVSGYSITSGFAWHWIRQFPGKGLEWMGYIHYSGGTNYNPSLKSRVSITRDTSKNQFFLQLNSVTAADTATYYCARGYYGFGAWFAYWGQGTLVPVSA
VL: DIVLTQSPAFMSASPGEKVTMTCSASSSVTYMHWYQQKPDQSPKRWIYDTSNLASGVPSRFSGGGSGTDYSLTISSMEAEDAATYYCQQWISDPPTFGQGTKLEIKR
modifications: DM1 attached through SMCC linker; attachment residues and load not stated
notes: SMCC-DM1 conjugate of huCD37-56
On to B9, for which the “EC50 … WST-8 assay, Daudi cells” value in the experiment with human CD37 [1] came out at 0.31 nM. Moreover, the Kd with human CD37 [2] was 0.34 nM.

B10: huCD37-56 (antibody, human IgG1, kappa, V domains shown)
VH: QVQLQESGPGLVKPSQSLSLTCTVSGYSITSGFAWHWIRQFPGKGLEWMGYIHYSGGTNYNPSLKSRVSITRDTSKNQFFLQLNSVTAADTATYYCARGYYGFGAWFAYWGQGTLVPVSA
VL: DIVLTQSPAFMSASPGEKVTMTCSASSSVTYMHWYQQKPDQSPKRWIYDTSNLASGVPSRFSGGGSGTDYSLTISSMEAEDAATYYCQQWISDPPTFGQGTKLEIKR
notes: Humanized antibody
As for B10, the Kd was 0.2 nM with human CD37 [3], 5 nM with macaque CD37 and 0.3 nM in the experiment with human CD37 [2].
